Experimental data as given in patent US20140011732A1.
Non-standard residues stand in square brackets, D forms with d. No end group written: not given here. Aib = CC(C)(N)C(=O)O

Assays:
[1] = biological target: human serum albumin (HSA) (human), P02768; assay: competition SPA on biotinylated HSA, 125I acylated GLP-1 tracer; conditions: remark: other sources report otherwise
[2] = biological target: human serum albumin (HSA) (human) (UniProt P02768); assay: as above

EC50 [1]	EC50 [2]	Binder
0.3 to 0.8 µM		HAEGTFTSDVSSYLEGQAAKEFIAWLVRGRG (here or on the partner: Aib8; Lys26 N-epsilon carries the acyl side chain printed in the name; biotinylated)
	0.3 to 0.8 µM	H[Aib]EGTFTSDVSSYLEGKAAREFIAWLVRGRG (not fully specified (residue 17); printed as N-epsilon23-[2-(2-[2-(2-[2-(2-(R)-3-[1-(17-Carboxyheptadecanoylamino)piperidin-4-ylcarbonylamino]-3-(carboxypropionylamino)ethoxy)ethoxy]acetylamino)ethoxy]ethoxy)acetyl][Aib8,Arg26,Arg 34]GLP-1-(7-37))
